Test results published in patent US20240409645A1 (DUALYX, published 2024).
Values belong to the binder of their own block, whether it stands above or below them.

Molecular target: T1, human IL-2 receptor (IL-2Rα/IL-2Rβ/γc) (human, UniProt P01589 22-272; P14784 27-551; P31785 23-369)
T1 sequence 1: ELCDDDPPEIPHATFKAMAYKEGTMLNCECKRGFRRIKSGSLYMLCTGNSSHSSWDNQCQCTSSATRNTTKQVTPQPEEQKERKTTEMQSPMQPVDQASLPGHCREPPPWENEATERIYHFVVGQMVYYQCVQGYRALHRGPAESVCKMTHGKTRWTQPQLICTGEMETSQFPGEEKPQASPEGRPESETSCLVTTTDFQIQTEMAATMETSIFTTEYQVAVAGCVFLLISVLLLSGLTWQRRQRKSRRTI
T1 sequence 2: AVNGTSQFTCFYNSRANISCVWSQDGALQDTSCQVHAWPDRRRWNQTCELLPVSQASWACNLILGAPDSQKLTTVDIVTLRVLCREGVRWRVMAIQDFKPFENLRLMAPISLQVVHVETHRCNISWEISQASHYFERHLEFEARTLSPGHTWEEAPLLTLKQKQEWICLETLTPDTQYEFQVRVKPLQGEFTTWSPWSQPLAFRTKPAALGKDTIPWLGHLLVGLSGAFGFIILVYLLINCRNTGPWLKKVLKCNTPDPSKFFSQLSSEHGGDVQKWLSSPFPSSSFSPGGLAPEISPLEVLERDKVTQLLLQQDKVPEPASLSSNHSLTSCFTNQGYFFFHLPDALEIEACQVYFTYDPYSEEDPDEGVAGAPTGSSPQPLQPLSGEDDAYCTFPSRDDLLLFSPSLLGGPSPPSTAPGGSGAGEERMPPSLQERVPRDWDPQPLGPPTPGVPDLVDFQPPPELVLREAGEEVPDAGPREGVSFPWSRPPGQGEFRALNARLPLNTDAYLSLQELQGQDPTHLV
T1 sequence 3: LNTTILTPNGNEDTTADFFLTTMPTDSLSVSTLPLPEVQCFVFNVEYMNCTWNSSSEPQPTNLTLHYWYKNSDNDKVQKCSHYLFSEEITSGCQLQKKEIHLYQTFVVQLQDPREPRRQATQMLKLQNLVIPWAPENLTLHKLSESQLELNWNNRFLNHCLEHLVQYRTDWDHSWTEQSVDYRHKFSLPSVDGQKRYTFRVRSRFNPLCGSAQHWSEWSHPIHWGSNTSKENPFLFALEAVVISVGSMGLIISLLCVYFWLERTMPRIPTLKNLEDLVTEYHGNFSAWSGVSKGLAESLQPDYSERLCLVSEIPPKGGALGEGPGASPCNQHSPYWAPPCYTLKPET
Assay: cell-based or functional assay

- EC50 (nM) pSTAT5, NK, human PBMCs: 0.0032 nM
- EC50 (nM) pSTAT5, Treg, human PBMCs: < 0.1 pM
- Fold Max signal (% pSTAT5+) Treg/NK: 12 fold
- Max signal (% pSTAT5+), NK: 4.31 % pSTAT5+
- Max signal (% pSTAT5+), Treg: 53.1 % pSTAT5+
- fold EC50 NK/Treg: > 32 fold
B1: DC00075 (other)
chain 1: QVQLVESGGGLVQAGGSLRLSCAASGIPFDNYAMGWFRQAPGKEREFVAARDLEGIITRYGDSVKGRFTISRGNAKNTVFLQMNSLKPEDTAVYYCAARDGGVVAGSRSSAQYNYWGQGTQVTVSSDKTHTCPPCPAPEAAGGPSVFLFPPKPKDTLMISRTPEVTCVVVDVSHEDPEVKFNWYVDGVEVHNAKTKPREEQYNSTYRVVSVLTVLHQDWLNGKEYKCKVSNKALGAPIEKTISKAKGQPREPQVYTLPPSRDELTKNQVSLTCLVKGFYPSDIAVEWESNGQPENNYKTTPPVLDSDGSFLLYSKLTVDKSRWQQGNVFSCSVMHEALHNHYTQKSLSLSPGK
chain 2: EVQLVESGGGLVQTGGSLRLSCAASGGTFSRDAMAWFRQVPGKEREFVALISWSGATTNYADSVKGRFAISRDNGKNTVYLQMNRLKPADTAIYYCAADRRPMGSRSYFEPTEYDDWGQGTQVTVSSGGGGSGGGGSGGGGSQVQLVESGGGLVQPGGSLRLSCATSGFTFRNNFMSWVRQAPGKGLEWVSTISYGGESTTYAESVKGRFTISRDNAKNTLYLQMNNLKPEDTAVYYCAKATSYDSIRSGSRGQGTQVTVSSGGGGSGGGGSGGGGSQVQLVESGGGLVQAGGSLTLSCAAPGRTFGTDVVGWFRQAPGKEREFVASISRSGDGIYYDDSVKGRFTISRNNAWNTVNLQMNSLKVEDTAVYYCAAGDGWSTYDYWGQGTQVTVSSGGGGSGGGGSGGGGSDKTHTCPPCPAPEAAGGPSVFLFPPKPKDTLMISRTPEVTCVVVDVSHEDPEVKFNWYVDGVEVHNAKTKPREEQYNSTYRVVSVLTVLHQDWLNGKEYKCKVSNKALGAPIEKTISKAKGQPREPQVYTLPPSRDELTKNQVSLTCLVKGFYPSDIAVEWESNGQPENNYKTTPPVLDSDGSFFLYSRLTVDKSRWQQGNVFSCSVMHEALHNHYTQKSLSLSPGK

- EC50 (nM) pSTAT5, NK, human PBMCs: 0.195 nM
- EC50 (nM) pSTAT5, Treg, human PBMCs: < 0.1 pM
- Fold Max signal (% pSTAT5+) Treg/NK: 5 fold
- Max signal (% pSTAT5+), NK: 14.1 % pSTAT5+
- Max signal (% pSTAT5+), Treg: 67.8 % pSTAT5+
- fold EC50 NK/Treg: > 1950 fold
B2: DC00078 (other)
chain 1: B1 chain 1
chain 2: QVQLVESGGGLVQAGGSLTLSCAAPGRTFGTDVVGWFRQAPGKEREFVASISRSGDGIYYDDSVKGRFTISRNNAWNTVNLQMNSLKVEDTAVYYCAAGDGWSTYDYWGQGTQVTVSSGGGGSGGGGSGGGGSEVQLVESGGGLVQTGGSLRLSCAASGGTFSRDAMAWFRQVPGKEREFVALISWSGATTNYADSVKGRFAISRDNGKNTVYLQMNRLKPADTAIYYCAADRRPMGSRSYFEPTEYDDWGQGTQVTVSSGGGGSGGGGSGGGGSQVQLVESGGGLVQPGGSLRLSCATSGFTFRNNFMSWVRQAPGKGLEWVSTISYGGESTTYAESVKGRFTISRDNAKNTLYLQMNNLKPEDTAVYYCAKATSYDSIRSGSRGQGTQVTVSSDKTHTCPPCPAPEAAGGPSVFLFPPKPKDTLMISRTPEVTCVVVDVSHEDPEVKFNWYVDGVEVHNAKTKPREEQYNSTYRVVSVLTVLHQDWLNGKEYKCKVSNKALGAPIEKTISKAKGQPREPQVYTLPPSRDELTKNQVSLTCLVKGFYPSDIAVEWESNGQPENNYKTTPPVLDSDGSFFLYSRLTVDKSRWQQGNVFSCSVMHEALHNHYTQKSLSLSPGK

- EC50 (nM) pSTAT5, NK, human PBMCs: 0.191 pM
- EC50 (nM) pSTAT5, Treg, human PBMCs: < 0.1 pM
- Fold Max signal (% pSTAT5+) Treg/NK: 7 fold
- Max signal (% pSTAT5+), NK: 7.96 % pSTAT5+
- Max signal (% pSTAT5+), Treg: 58.4 % pSTAT5+
- fold EC50 NK/Treg: > 1.91 fold
B3: DC00077 (other)
chain 1: B1 chain 1
chain 2: QVQLVESGGGLVQPGGSLRLSCATSGFTFRNNFMSWVRQAPGKGLEWVSTISYGGESTTYAESVKGRFTISRDNAKNTLYLQMNNLKPEDTAVYYCAKATSYDSIRSGSRGQGTQVTVSSGGGGSGGGGSGGGGSEVQLVESGGGLVQTGGSLRLSCAASGGTFSRDAMAWFRQVPGKEREFVALISWSGATTNYADSVKGRFAISRDNGKNTVYLQMNRLKPADTAIYYCAADRRPMGSRSYFEPTEYDDWGQGTQVTVSSGGGGSGGGGSGGGGSQVQLVESGGGLVQAGGSLTLSCAAPGRTFGTDVVGWFRQAPGKEREFVASISRSGDGIYYDDSVKGRFTISRNNAWNTVNLQMNSLKVEDTAVYYCAAGDGWSTYDYWGQGTQVTVSSGGGGSGGGGSGGGGSDKTHTCPPCPAPEAAGGPSVFLFPPKPKDTLMISRTPEVTCVVVDVSHEDPEVKFNWYVDGVEVHNAKTKPREEQYNSTYRVVSVLTVLHQDWLNGKEYKCKVSNKALGAPIEKTISKAKGQPREPQVYTLPPSRDELTKNQVSLTCLVKGFYPSDIAVEWESNGQPENNYKTTPPVLDSDGSFFLYSRLTVDKSRWQQGNVFSCSVMHEALHNHYTQKSLSLSPGK

- EC50 (nM) pSTAT5, NK, human PBMCs: 2.42 nM
- EC50 (nM) pSTAT5, Treg, human PBMCs: < 0.1 pM
- Fold Max signal (% pSTAT5+) Treg/NK: 4 fold
- Max signal (% pSTAT5+), NK: 14 % pSTAT5+
- Max signal (% pSTAT5+), Treg: 59.4 % pSTAT5+
- fold EC50 NK/Treg: > 24200 fold
B4: DC00076 (other)
chain 1: B1 chain 1
chain 2: QVQLVESGGGLVQPGGSLRLSCATSGFTFRNNFMSWVRQAPGKGLEWVSTISYGGESTTYAESVKGRFTISRDNAKNTLYLQMNNLKPEDTAVYYCAKATSYDSIRSGSRGQGTQVTVSSGGGGSGGGGSGGGGSQVQLVESGGGLVQAGGSLTLSCAAPGRTFGTDVVGWFRQAPGKEREFVASISRSGDGIYYDDSVKGRFTISRNNAWNTVNLQMNSLKVEDTAVYYCAAGDGWSTYDYWGQGTQVTVSSGGGGSGGGGSGGGGSEVQLVESGGGLVQTGGSLRLSCAASGGTFSRDAMAWFRQVPGKEREFVALISWSGATTNYADSVKGRFAISRDNGKNTVYLQMNRLKPADTAIYYCAADRRPMGSRSYFEPTEYDDWGQGTQVTVSSGGGGSGGGGSGGGGSDKTHTCPPCPAPEAAGGPSVFLFPPKPKDTLMISRTPEVTCVVVDVSHEDPEVKFNWYVDGVEVHNAKTKPREEQYNSTYRVVSVLTVLHQDWLNGKEYKCKVSNKALGAPIEKTISKAKGQPREPQVYTLPPSRDELTKNQVSLTCLVKGFYPSDIAVEWESNGQPENNYKTTPPVLDSDGSFFLYSRLTVDKSRWQQGNVFSCSVMHEALHNHYTQKSLSLSPGK

- EC50 (nM) pSTAT5, NK, human PBMCs: 0.0993 nM
- EC50 (nM) pSTAT5, Treg, human PBMCs: < 0.1 pM
- Fold Max signal (% pSTAT5+) Treg/NK: 8 fold
- Max signal (% pSTAT5+), NK: 7.35 % pSTAT5+
- Max signal (% pSTAT5+), Treg: 62.4 % pSTAT5+
- fold EC50 NK/Treg: > 994 fold
B5: DC00079 (other)
chain 1: B1 chain 1
chain 2: QVQLVESGGGLVQAGGSLTLSCAAPGRTFGTDVVGWFRQAPGKEREFVASISRSGDGIYYDDSVKGRFTISRNNAWNTVNLQMNSLKVEDTAVYYCAAGDGWSTYDYWGQGTQVTVSSGGGGSGGGGSGGGGSQVQLVESGGGLVQPGGSLRLSCATSGFTFRNNFMSWVRQAPGKGLEWVSTISYGGESTTYAESVKGRFTISRDNAKNTLYLQMNNLKPEDTAVYYCAKATSYDSIRSGSRGQGTQVTVSSGGGGSGGGGSGGGGSEVQLVESGGGLVQTGGSLRLSCAASGGTFSRDAMAWFRQVPGKEREFVALISWSGATTNYADSVKGRFAISRDNGKNTVYLQMNRLKPADTAIYYCAADRRPMGSRSYFEPTEYDDWGQGTQVTVSSGGGGSGGGGSGGGGSDKTHTCPPCPAPEAAGGPSVFLFPPKPKDTLMISRTPEVTCVVVDVSHEDPEVKFNWYVDGVEVHNAKTKPREEQYNSTYRVVSVLTVLHQDWLNGKEYKCKVSNKALGAPIEKTISKAKGQPREPQVYTLPPSRDELTKNQVSLTCLVKGFYPSDIAVEWESNGQPENNYKTTPPVLDSDGSFFLYSRLTVDKSRWQQGNVFSCSVMHEALHNHYTQKSLSLSPGK
